The results in this text go back to patent US11447566B2, “Anti-tissue factor antibodies, antibody-drug conjugates, and related methods” (Iconic Therapeutics, Inc., priority 2018, dated 2022).

Experiment [1] relates to human thrombin generation (relipidated TF, normal pooled plasma). Description: Thrombin generation assay (TGA). Particulars: 100 nM antibody, Example 18. The format is biochemical. As to the method:
(§1) The TGA assay was performed using the calibrated-automated-thrombogram (CAT) instrument manufactured and distributed by STAGO. The test method design was equivalent to a standard CAT assay measurement, except that the plasma source was NPP in citrate/CTI. […] Relipidated TF was added to a 96-well assay plate, followed by addition of the antibody/NPP mixture. After a 10-min incubation or directly after combining the relipidated TF with antibody/NPP, thrombin generation was initiated by the addition of calcium and the thrombin substrate. The STAGO software was used to report the following parameters: Peak IIa (highest thrombin concentration generated [nM]); Lag Time (time to IIa generation [min]); ETP (endogenous thrombin potential, area under the curve [nM×min]); and ttPeak (time to Peak IIa [min]).
as §1, with “was normal pooled plasma (NPP)” for “was NPP”, “in citrate supplemented with corn trypsin inhibitor (citrate/CTI).” for “in citrate/CTI.”
TGA assay was performed using the calibrated-automated-thrombogram (CAT) instrument manufactured and distributed by STAGO (Diagnostica Stago SAS, Asnieres sur Seine, France). […] The anti-TF antibodies were titrated at 0, 10, 50 and 100 nM and mixed with NPP in citrate/CTI. Relipidated TF was added to a 96-well assay plate, followed by addition of the antibody/NPP mixture. After a 10-min incubation or directly after combining the relipidated TF with antibody/NPP, thrombin generation was initiated by the addition of calcium and the thrombin substrate. The STAGO software was used to report the following parameters: Peak IIa (highest thrombin concentration generated on the thrombin generation curve [nM]); Lag Time (time from assay start to the moment 10 nM of thrombin is formed [min]); ETP (endogenous thrombin potential, area under the curve [nM×min]); and ttPeak (time from assay start to Peak IIa [min]). […] As used herein, the term “thrombin generation assay” (TGA) refers to the TGA used in this example.

Experiment [2] concerns the target T1, human TF on MDA-MB-231 cells (25A3-Alexa488 binding) (Homo sapiens, UniProt P13726).
T1 construct: TF-positive MDA-MB-231 cells (ATCC, Manassas, Va., USA); host or cells: MDA-MB-231
The experiment can be described thus: Antibody competition assay with 25A3. Conditions: pre-incubation with unlabeled competitor antibody. As to the method:
(§2) Alexa Fluor antibodies were generated using Alexa Fluor 488 5-sulfo-[…] esters (ThermoFisher Scientific) following manufacturer's protocol. Excess Alexa Fluor dye was removed from the antibody dye conjugate preparations by gel filtration (ThermoFisher Scientific).
(§3) After another 1 hr incubation on ice, cells were washed, stained with a viability dye, and analyzed by flow cytometry. The Alexa488 fluorescence data from viable cells was summarized using median fluorescence intensity.

In experiment [3] the target is T2, human, rat and chimeric human-rat TF constructs expressed on HEK293 cells (Homo sapiens, UniProt P13726, K197R/S192D/S195T).
T2 construct: expressed in transfected cells; host or cells: HEK293
Description: Live cell staining assay on chimeric TF constructs (epitope binning). Particulars: construct h159-166_r (3), human segment replaced by rat segment. The format is cell-based. The protocol: (§4) To establish binding of the anti-human TF antibodies to the various TF constructs, HEK293 cells were transfected with a DNA plasmid that co-expresses the TF construct and a green fluorescent protein marker. […] Two days after transfection, cells were collected from the tissue culture plate, stained with 15 μg/ml of the indicated anti-TF antibody, washed, stained with anti-human IgG-Fc Alexa Fluor 647 polyclonal antibody, washed, and stained with the viability dye 4′,6-Diamidino-2-Phenylindole, Dihydrochloride. Upon acquisition of 80,000 live events on a flow cytometer, live cells marked with the fluorescent marker were analyzed for the degree of staining by the anti-TF antibody. […] As used herein, the term “live cell staining assay” refers to the antibody binding assay used in this example.
(§5) When “Percentage antibody binding to TF construct relative to hTF” in Tables 51 and 52 was less than 50%, the antibody was considered a non-binder (0) in Tables 53 and 54.
(§6) Each antibody was assigned to an epitope bin in Table 55 based on the combination of unbound constructs from Table 53.

Experiment [4] concerns the target T3, human, rat and chimeric human-rat TF constructs expressed on HEK293 cells (Homo sapiens, UniProt P13726, D76N/F108L/F82T/G75R/K100N/K73R/L104E/Q101W/S79Y/T72D/Y83G).
T3 construct: expressed in transfected cells; host or cells: HEK293
Described as above. The format is cell-based. Conditions: construct h39-77_r (11), human segment replaced by rat segment. The protocol: as §4, §5, §6

In experiment [5] the target is T4, human, rat and chimeric human-rat TF constructs expressed on HEK293 cells (Homo sapiens, UniProt P13726, I184G/T186I/W190R/Y188T).
T4 construct: expressed in transfected cells; host or cells: HEK293
The description is as above. The format is cell-based. Conditions: construct h152-158_r (4), human segment replaced by rat segment. The protocol: as §4, §5, §6

Experiment [6] concerns the target T5, human, rat and chimeric human-rat TF constructs expressed on HEK293 cells (Homo sapiens, UniProt P13726, K100N).
T5 construct: expressed in transfected cells; host or cells: HEK293
The description is as above. The format is cell-based. Conditions: construct hTF_K68N. As to the method:
as §4, §5, §6

The target of experiment [7] is T6, human, rat and chimeric human-rat TF constructs expressed on HEK293 cells (Homo sapiens, UniProt P13726, I184G/K181N/T186I/W190R/Y188T).
T6 construct: expressed in transfected cells; host or cells: HEK293
The experiment is described as above. Conditions: construct h146-158_r (5), human segment replaced by rat segment. The format is cell-based. The protocol: as §4, §5, §6

For experiment [8], the target named is T7, human TF on MDA-MB-231 cells (43D7-Alexa488 binding) (Homo sapiens, UniProt P13726).
T7 construct: TF-positive MDA-MB-231 cells (ATCC, Manassas, Va., USA); host or cells: MDA-MB-231
Description: Antibody competition assay with 43D7. Particulars: pre-incubation with unlabeled competitor antibody. As to the method: as §2, §3

In experiment [9] the target is T8, human TF on MDA-MB-231 cells (39A-Alexa488 binding) (Homo sapiens, UniProt P13726).
T8 construct: TF-positive MDA-MB-231 cells (ATCC, Manassas, Va., USA); host or cells: MDA-MB-231
The experiment can be described thus: Antibody competition assay with 39A. Particulars: pre-incubation with unlabeled competitor antibody. The protocol: as §2, §3

Experiment [10] concerns the target T9, human TF on MDA-MB-231 cells (FVII-Fc binding) (Homo sapiens, UniProt P13726).
T9 construct: TF-positive MDA-MB-231 cells (ATCC, Manassas, Va., USA); host or cells: MDA-MB-231
The experiment can be described thus: FVIIa competition assay. Conditions: highest concentration of antibody; FIG. 14B.
Description: To evaluate competition between FVIIa and the human antibodies against TF, TF-positive MDA-MB-231 cells (ATCC, Manassas, Va., USA) were first incubated for 1 hr on ice with a titration of the human antibodies against TF. Subsequently, a final concentration of 20 nM of FVII-Fc conjugated to Alexa488 was added to the antibody cell mixture. After another 1 hr incubation on ice, cells were washed, stained with a viability dye, and analyzed by flow cytometry. The Alexa488 fluorescence data from viable cells was summarized using median fluorescence intensity.
Subsequently, FVII-Fc conjugated to Alexa488 was added to the antibody-cell mixture at a final concentration of 20 nM. After another 1 hr incubation on ice, cells were washed, stained with a viability dye, and analyzed by flow cytometry. The Alexa488 fluorescence data from viable cells was summarized using median fluorescence intensity (MFI).

The target of experiment [11] is T10, TF:FVIIa on MDA-MB-231 cells (Homo sapiens, UniProt P13726).
T10 construct: MDA-MB-231 cells (ATCC, Manassas, Va., USA) were plated; host or cells: MDA-MB-231
Description: FXa conversion assay. Particulars: concentrations of 25, 50, and 100 nM; FIG. 14A. The format is cell-based.
Description: To evaluate the ability of TF:FVIIa to convert FX into FXa in the presence of human antibodies against TF, 5×10^4 MDA-MB-231 cells (ATCC, Manassas, Va., USA) were plated into tissue culture-treated black 96-well plates (Greiner Bio-One, Monroe, N.C., USA). […] Upon reconstitution of the binary TF:FVIIa complex with a final concentration of 20 nM of FVIIa, cells were incubated for 5 min at 37° C.
Briefly, 5×10^4 MDA-MB-231 cells (ATCC, Manassas, Va., USA) were plated into tissue culture-treated black 96-well plates (Greiner Bio-One, Monroe, N.C., USA) and cultured overnight. […] Upon reconstitution of the binary TF:FVIIa complex with a final concentration of 20 nM of FVIIa, cells were incubated for 5 min at 37° C.

Consider TF-011 [reference compound], for which the “reduction of the peak IIa concentration” value in experiment [1] (10 min antibody pre-incubation) and in experiment [1] (without antibody pre-incubation) was 91% each time. In [2], the “% 25A3 binding” value is on record as “did not reduce”. Besides, the “Antibody binding to TF construct” value in experiment [3] is 1 (between 50% and 150%, the antibody was considered a binder (1)); in [4], 0 (less than 50%, the antibody was considered a non-binder (0)); in [5] it was 1 (between 50% and 150%, the antibody was considered a binder (1)); in [6], 1 (between 50% and 150%, the antibody was considered a binder (1)); in [7], 1 (between 50% and 150%, the antibody was considered a binder (1)). In addition, the “% 43D7 binding” value in experiment [8] is recorded as “did not reduce”. In addition, the “% 39A binding” value in experiment [9] is “reduced”. Also, the “competition with FVII” value in [10] was “effectively competed”. Also, the “inhibition of FX conversion” value in [11] was 57-59%.
